Data published in patent publication US20200369770A1 (NANJING LEGEND BIOTECH, published 2020).

T1: His-tagged TIGIT protein (Homo sapiens (Human), UniProt Q495A1 22-141)
T1 construct: SPR analyte; not shown: His tag
T1 sequence: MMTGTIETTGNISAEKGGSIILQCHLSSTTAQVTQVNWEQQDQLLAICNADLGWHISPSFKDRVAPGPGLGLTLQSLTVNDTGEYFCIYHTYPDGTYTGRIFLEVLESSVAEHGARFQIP

T2: human TIGIT expressed on CHO cells (human, UniProt Q495A1 22-244)
T2 construct: also called CHO cells expressing human TIGIT
T2 sequence: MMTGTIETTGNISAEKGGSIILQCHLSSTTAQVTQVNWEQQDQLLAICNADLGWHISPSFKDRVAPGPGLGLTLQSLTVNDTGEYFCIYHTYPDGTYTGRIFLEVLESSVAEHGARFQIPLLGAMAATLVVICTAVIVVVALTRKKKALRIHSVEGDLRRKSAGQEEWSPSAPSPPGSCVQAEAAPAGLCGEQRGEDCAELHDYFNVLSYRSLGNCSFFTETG

T3: LAG-3 Fc fusion protein having a biotin-label (Homo sapiens (Human), UniProt P18627 29-450, limits assumed, biotin label (site not stated))
T3 construct: not shown: Fc
T3 sequence: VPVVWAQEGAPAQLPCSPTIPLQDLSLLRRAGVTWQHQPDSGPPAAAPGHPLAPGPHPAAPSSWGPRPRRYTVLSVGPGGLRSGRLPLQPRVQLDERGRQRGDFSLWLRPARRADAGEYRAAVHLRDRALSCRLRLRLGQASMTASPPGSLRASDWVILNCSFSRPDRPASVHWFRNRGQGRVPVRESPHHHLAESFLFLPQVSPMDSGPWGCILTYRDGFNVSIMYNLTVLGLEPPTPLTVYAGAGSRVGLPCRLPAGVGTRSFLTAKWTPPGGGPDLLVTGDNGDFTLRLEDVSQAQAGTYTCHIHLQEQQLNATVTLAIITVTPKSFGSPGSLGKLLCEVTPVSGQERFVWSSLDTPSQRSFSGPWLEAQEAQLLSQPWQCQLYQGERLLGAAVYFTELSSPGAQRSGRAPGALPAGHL

T4: human LAG-3 expressed on CHO cells (human, UniProt P18627 29-525)
T4 construct: also called CHO cells expressing human LAG-3
T4 sequence: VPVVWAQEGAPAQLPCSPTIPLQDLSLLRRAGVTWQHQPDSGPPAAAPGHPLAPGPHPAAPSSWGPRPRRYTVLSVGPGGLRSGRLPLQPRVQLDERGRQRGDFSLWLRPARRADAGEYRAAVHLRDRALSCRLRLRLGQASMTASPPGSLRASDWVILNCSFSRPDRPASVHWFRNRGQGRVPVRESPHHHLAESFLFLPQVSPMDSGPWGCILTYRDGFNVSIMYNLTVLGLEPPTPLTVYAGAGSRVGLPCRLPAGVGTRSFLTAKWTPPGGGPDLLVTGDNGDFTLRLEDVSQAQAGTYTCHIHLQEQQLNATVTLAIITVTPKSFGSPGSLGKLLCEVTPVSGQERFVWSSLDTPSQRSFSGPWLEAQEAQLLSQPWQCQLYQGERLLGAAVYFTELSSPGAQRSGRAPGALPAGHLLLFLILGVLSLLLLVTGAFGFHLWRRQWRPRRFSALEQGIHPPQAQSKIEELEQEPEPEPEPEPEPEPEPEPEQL

T5: His-tagged LAG-3 protein (Homo sapiens (Human), UniProt P18627 29-450, limits assumed)
T5 construct: SPR analyte; not shown: His tag
T5 sequence: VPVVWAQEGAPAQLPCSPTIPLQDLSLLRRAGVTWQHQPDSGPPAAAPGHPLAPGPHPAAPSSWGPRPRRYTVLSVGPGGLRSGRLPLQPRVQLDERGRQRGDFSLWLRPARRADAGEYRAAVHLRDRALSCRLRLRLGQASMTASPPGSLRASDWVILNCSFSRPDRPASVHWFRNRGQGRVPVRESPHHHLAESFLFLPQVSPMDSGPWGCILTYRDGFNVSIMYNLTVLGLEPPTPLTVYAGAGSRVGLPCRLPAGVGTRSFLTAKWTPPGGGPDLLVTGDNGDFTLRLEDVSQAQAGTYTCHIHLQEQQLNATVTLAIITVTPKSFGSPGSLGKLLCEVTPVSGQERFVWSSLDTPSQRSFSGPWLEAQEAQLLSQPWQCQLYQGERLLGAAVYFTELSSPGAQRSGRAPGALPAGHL


Assays:
His-tagged TIGIT protein = target: T1, His-tagged TIGIT protein; experiment: SPR (BIACORE T200), His-tagged TIGIT as analyte over captured binder; column TIGIT / Affinity (nM)
Excerpt: Binding curves at different analyte concentrations were used to calculate the kinetic parameters kₒₙ, koff and Kd (FIGS. 13A-13K).

[1] = target: T2, human TIGIT expressed on CHO cells; experiment: FACS competition on CHO cells expressing human TIGIT, blocked ligand biotinylated hCD155 Fc; column TIGIT / Ligand competition (IC50 nM)
Method: (§1) Each mixture was equilibrated for 30 minutes at room temperature, and washed three times with FACS buffer (PBS containing 1% BSA). PE/Cy5 Streptavidin secondary antibody was then added to each mixture and incubated for 15 minutes at room temperature. Subsequently, the cells were washed again with FACS buffer and analyzed by flow cytometry. Data was analyzed with PRISM™ (GraphPad Software, San Diego, Calif.) using non-linear regression, and IC₅₀ values were calculated.

[2] = target: T2, human TIGIT expressed on CHO cells; experiment: FACS on CHO cells expressing human TIGIT; column TIGIT / Cell binding (EC50 nM)
Method: (§2) The mixture was equilibrated for 30 minutes at room temperature, and washed three times with FACS buffer (PBS containing 1% BSA). FITC-conjugated anti-human Fc antibody (Jackson ImmunoResearch) used as secondary antibody was then added and the mixture was incubated for 15 minutes at room temperature. Cells were washed again with FACS buffer and analyzed by flow cytometry. Data were analyzed with PRISM™ (GraphPad Software, San Diego, Calif.) using non-linear regression, and EC₅₀ values were calculated.

[3] = target: T3, LAG-3 Fc fusion protein having a …; experiment: FACS competition, binding of biotinylated LAG-3 Fc to MHC class II on A375 cells blocked; column LAG-3 / Ligand competition (IC50 nM)
Method: as §1

[4] = target: T4, human LAG-3 expressed on CHO cells; experiment: FACS on CHO cells expressing human LAG-3; column LAG-3 / Cell binding (EC50 nM)
Method: as §2, with “and” for “and the mixture was”, “Data was” for “Data were”

His-tagged LAG-3 protein = target: T5, His-tagged LAG-3 protein; experiment: SPR (BIACORE T200), His-tagged LAG-3 as analyte over immobilized binder; column LAG-3 / Affinity (nM)
Excerpt: Binding curves at different analyte concentrations were used to calculate the kinetic parameters kₒₙ, koff and Kd (FIGS. 14A-14K).

Kd (His-tagged TIGIT protein) [nM]	IC50 [1] [nM]	EC50 [2] [nM]	IC50 [3] [nM]	EC50 [4] [nM]	Kd (His-tagged LAG-3 protein) [nM]	Binder
0.44	8.61	4.99				AS19584VH28 HCAb (antibody, human IgG4 S228P, V domains shown, positive control for TIGIT; also called anti-TIGIT AS19584VH28 HCAb) VH: EVQLVESGGGLVQPGGSLRLSCAASGYKYGVYSMGWFRQAPGKGLEGVSAICSGGRTTYSDSVKGRFTISRDNSNQILYLQMNSLRAEDTAVYYCAARPLWTGDCDLSSSWYKTWGQGTLVTVSS
			11	1.82	0.45	VHH2 HCAb (antibody, human IgG4 S228P, V domains shown, positive control for LAG-3; also called anti-LAG-3 VHH2 HCAb) VH: EVQLVESGGGLVQPGGSLRLSCAASGYTVSSYCMGWFRQAPGKGREGVSAIDSDGSVSYADSVKGRFTISKDNSKNTLYLQMNSLRAEDTAVYFCAADLCWVDQDQGEYNTWGQGTLVTVSS
